The text below walks through data of PMC6028098, “The N-terminal region of photocleavable peptides that bind HLA-DR1 determines the kinetics of fragment release” (PLoS ONE, 2018).

The experiment has as its target HLA-DR1 (DRA*01:01/DRB1*01:01) extracellular domain (human). The experiment in a line: fluorescence polarisation. On the technique in general: Fluorescence polarisation rises when a labelled molecule tumbles more slowly, as on binding a larger partner.
Regarding “photoHA photocleavable peptide (PRYVKxNTLRLAT)”, the IC50 (in general, the midpoint of a concentration-inhibition curve) came out at 92 nM.

The substance “photoHAΔ1–2 photocleavable peptide (YVKxNTLRLAT)” showed an IC50 of 1040 nM.

On to “Ac-photoHAΔ1–2 photocleavable peptide (Ac-YVKxNTLRLAT)”, for which the IC50 came out at 227 nM. Next, “HA peptide (unlabeled, non-photocleavable), HA306-318-derived”: 40 nM; “Ac-photoHA photocleavable peptide (Ac-PRYVKxNTLRLAT)”: 134 nM.
